Laboratory results as given in patent publication US20170166649A1 (MAX DELBR CK CENTRUM F R MOLEKULARE MEDIZIN IN DER …, published 2017).

Columns and labels:
[1] = target: T1, human CD269 (BCMA) on human multiple myeloma cells (MM.1S, RPMI-8226) (human, UniProt Q02223 1-184); experiment: flow cytometry on MM.1S cells
T1 construct: whole, on cells; also called BCMA-positive MM.1S cells; CD269-positive MM.1S cells
T1 sequence (looked up): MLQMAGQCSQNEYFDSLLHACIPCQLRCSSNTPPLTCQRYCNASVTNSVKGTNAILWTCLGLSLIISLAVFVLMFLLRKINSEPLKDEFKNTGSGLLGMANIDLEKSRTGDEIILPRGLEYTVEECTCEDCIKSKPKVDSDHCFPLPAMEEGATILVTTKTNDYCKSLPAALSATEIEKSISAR

[2] = target: T2, extracellular domain of human CD269 (BCMA, TNFRSF17) (human, UniProt Q02223 4-54); experiment: complex isolated by size exclusion chromatography and crystallised
T2 construct: also called hBCMA; human BCMA
T2 sequence: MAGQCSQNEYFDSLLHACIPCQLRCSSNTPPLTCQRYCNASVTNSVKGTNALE
Procedure: (Fab)₂ fragments were generated from full length J22.9-xi IgG by incubation with pepsin. J22.9-xi was passed over a PD-10 buffer exchange column into 50 mM sodium acetate, pH 3.5 and pepsin added at 30 μg per milligram J22.9-xi. Incubation at 37° C. for 2.5 hours was sufficient to completely digest the fragment crystallizable (Fc) region and pepsin was inactivated by exchange over a PD-10 column into PBS (pH 7.2). The reduction of the (Fab)₂ fragments to individual Fabs was accomplished in PBS by addition of 2-Mercaptoethylamine (50 mM) in the presence of 5 mM ethylenediaminetetraacetic acid (EDTA). After incubation for 90 minutes at 37° C., the reduced cysteines were blocked by alkylation with 500 μM iodoacetamide for 30 minutes followed by buffer exchange into fresh PBS. The Fab fragments were combined with 1.5 molar equivalents of purified BCMA and the complexes isolated by size exclusion chromatography on a Superdex 75 16/60 column.
Concentrated complexes were supplemented with 0.5 molar equivalents of pure BCMA to ensure saturation and were subjected to crystallization screening. Initial Fab:BCMA crystallization conditions were identified from commercial screens (Qiagen) in 96-well sitting drop format plates using a Gryphon pipetting robot (200 nl drops) and optimized in 24 well plates in hanging drops (2-3 ul). […]

[3] = target: T2, extracellular domain of human CD269 …; experiment: ELISA of hybridoma J22.9 supernatant on BCMA-coated microtiter plates at the given days of culture
[4] = target: T2, extracellular domain of human CD269 …; experiment: SPR, IgG immobilised, human BCMA in mobile phase (n = 3)
Procedure: (§1) FIG. 12: SPR raw data: Binding affinities of the chimeric J22.9-xi and humanized variants to human (A) and cynomolgus (B) BCMA was measured by Surface Plasmon Resonance (SPR) Spectrometry. IgGs were immobilized via amine chemistry to a Proteon GLH sensor chip and binding measured with BCMA in the mobile phase. The order of raw data traces in the graph corresponds to the order to samples listed in the legend of the figure.
(§2) SPR was performed on a ProteonXPR36 using phosphate buffered saline supplemented with 0.005% Tween-20 (PBST). Whole IgG at a concentration of 15 ug/ml was immobilized to a Proteon GLH sensor chip using standard amine chemistry according to the manufacturer's instructions. For binding experiments, human or cynomolgus BCMA in PBST was used as the mobile phase.

[5] = target: T3, extracellular domain of cynomolgous BCMA (cynomolgus, UniProt A0A2K5UD97 1-53); experiment: SPR, IgG immobilised, cynomolgus BCMA in mobile phase (n = 2)
T3 construct: extracellular domain; also called cyBCMA; cynoBCMA
Procedure: as §1, §2

[6] = target: T2, extracellular domain of human CD269 …; experiment: ELISA on plates coated with human BCMA (1 ug/ml), % of max
Procedure: (§3) ELISA was carried out as described herein using BCMA-coated microtiter plates (1 microg/ml).
(§4) Microtiter plates were coated with 1 μg/ml of the extracellular domain of human or cynomolgous BCMA (hBCMA or cyBCMA, respectively). Coated BCMA was detected with serial dilution of J22.9-xi, J22.9-H, J22.9-ISY and J22.9-FSY ranging from 0.26 pM to 500 nM. Binding of antibodies to the coated BCMA was detected with horseradish peroxidase (HRP)-conjugated goat anti-human secondary antibody (Jackson ImmunoResearch, 109-035-098, dilution 1:5,000).

[7] = target: T2, extracellular domain of human CD269 …; experiment: SPR; mean Kd of FIG. 1c, initial SPR characterisation (not the n = 3 series of Table 6)
[8] = target: T3, extracellular domain of cynomolgous BCMA; experiment: ELISA on plates coated with cynomolgus BCMA (1 ug/ml), % of max
Procedure: as §3, §4

[9] = target: T2, extracellular domain of human CD269 …; experiment: SPR, value printed beside the trace for 1.1 nM BCMA; neither a quantity name nor a unit is printed, and the five values average to the mean Kd of 54 pM of paragraph 196
[10] = target: T2, extracellular domain of human CD269 …; experiment: SPR, value printed beside the trace for 3.3 nM BCMA; neither a quantity name nor a unit is printed, and the five values average to the mean Kd of 54 pM of paragraph 196
[11] = target: T2, extracellular domain of human CD269 …; experiment: SPR, value printed beside the trace for 10.0 nM BCMA; neither a quantity name nor a unit is printed, and the five values average to the mean Kd of 54 pM of paragraph 196
[12] = target: T2, extracellular domain of human CD269 …; experiment: SPR, value printed beside the trace for 30.0 nM BCMA; neither a quantity name nor a unit is printed, and the five values average to the mean Kd of 54 pM of paragraph 196
[13] = target: T2, extracellular domain of human CD269 …; experiment: SPR, value printed beside the trace for 90.0 nM BCMA; neither a quantity name nor a unit is printed, and the five values average to the mean Kd of 54 pM of paragraph 196

T3 sequence (A0A2K5UD97 entry or part of it): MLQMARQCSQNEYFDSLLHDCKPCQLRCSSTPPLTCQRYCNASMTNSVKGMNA

B1: J22.9-xi-N-glycan (deglycosylated J22.9-xi) (antibody, human IgG1, V domains shown)
VH: QVQLQQSGGGLVQPGGSLKLSCAASGIDFSRYWMSWVRRAPGKGLEWIGEINPDSSTINYAPSLKDKFIISRDNAKNTLYLQMSKVRSEDTALYYCASLYYDYGDAMDYWGQGTSVTVSS
VL: DIVMTQSQRFMTTSVGDRVSVTCKASQSVDSNVAWYQQKPRQSPKALIFSASLRFSGVPARFTGSGSGTDFTLTISNLQSEDLAEYFCQQYNNYPLTFGAGTKLELKR
modifications: N-linked oligosaccharide chains at Asn297 of the heavy chain removed with PNGase F
notes: also called J22.9-xi without N-glycans
B1: binds [1].

B2: Fab fragment prepared from J22.9-xi (Fab, V domains shown)
VH: QVQLQQSGGGLVQPGGSLKLSCAASGIDFSRYWMSWVRRAPGKGLEWIGEINPDSSTINYAPSLKDKFIISRDNAKNTLYLQMSKVRSEDTALYYCASLYYDYGDAMDYWGQGTSVTVSS
VL: DIVMTQSQRFMTTSVGDRVSVTCKASQSVDSNVAWYQQKPRQSPKALIFSASLRFSGVPARFTGSGSGTDFTLTISNLQSEDLAEYFCQQYNNYPLTFGAGTKLELKR
modifications: reduced cysteines blocked by alkylation with iodoacetamide
notes: also called J22.9-xi Fab
B2: binds [2].

B3: antibody in the supernatant of mouse hybridoma J22.9 (antibody, V domains shown)
VH: QVQLQQSGGGLVQPGGSLKLSCAASGIDFSRYWMSWVRRAPGKGLEWIGEINPDSSTINYAPSLKDKFIISRDNAKNTLYLQMSKVRSEDTALYYCASLYYDYGDAMDYWGQGTSVTVSS
VL: DIVMTQSQRFMTTSVGDRVSVTCKASQSVDSNVAWYQQKPRQSPKALIFSASLRFSGVPARFTGSGSGTDFTLTISNLQSEDLAEYFCQQYNNYPLTFGAGTKLELKR
notes: Mouse antibody; also called hybridoma J22.9 supernatant
B3: binds [3].

B4: chimeric antibody J22.9-xi (antibody, V domains shown)
VH: QVQLQQSGGGLVQPGGSLKLSCAASGIDFSRYWMSWVRRAPGKGLEWIGEINPDSSTINYAPSLKDKFIISRDNAKNTLYLQMSKVRSEDTALYYCASLYYDYGDAMDYWGQGTSVTVSS
VL: DIVMTQSQRFMTTSVGDRVSVTCKASQSVDSNVAWYQQKPRQSPKALIFSASLRFSGVPARFTGSGSGTDFTLTISNLQSEDLAEYFCQQYNNYPLTFGAGTKLELKR
notes: Full length IgG made in 293-6E cells
In the case of B4, the Kd [4] is reported as 0.28 nM, the Kd [5] is reported as 2.7 nM and the “EC50 (read off the curve)” value [6] is reported as about 0.2 nM. For the same binder, the Kd [7] was 0.054 nM, the “EC50 (read off the curve)” value [8] was about 0.2 nM and the Kd [9] was 0.021 nM. For the same binder, the Kd [10] was 0.0362 nM, the Kd [11] was 0.0555 nM and the Kd [12] was 0.0695 nM. The Kd [13] was 0.088 nM.
